One may read the Kd as the concentration at which binding is half-saturated. A low value points to a tighter complex. Usually stoichiometry N stands for a count of units in the complex or per binding partner.

What all share (test): AUC
Experiment [1] has as its target human nectin-3 ectodomain (D1-D3) (human) (UniProt Q9NQS3).
Experiment [2] addresses human nectin-1 ectodomain (D1-D3) (human) (UniProt Q15223).
The target in experiment [3] is mouse nectin-3 ectodomain (D1-D3 with part of the stalk) (mouse) (UniProt Q9JLB9).

Chain of human nectin-3 ectodomain (D1-D3) (Q9NQS3 58-359): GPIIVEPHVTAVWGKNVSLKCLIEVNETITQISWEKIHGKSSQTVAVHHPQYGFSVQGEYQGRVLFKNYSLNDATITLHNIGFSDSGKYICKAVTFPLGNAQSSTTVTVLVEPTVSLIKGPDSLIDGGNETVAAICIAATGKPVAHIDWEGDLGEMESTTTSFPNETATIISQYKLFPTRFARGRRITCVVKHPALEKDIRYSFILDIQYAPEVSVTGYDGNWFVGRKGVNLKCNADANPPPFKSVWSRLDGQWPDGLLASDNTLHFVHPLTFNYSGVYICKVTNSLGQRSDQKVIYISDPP
Chain of mouse nectin-3 ectodomain (D1-D3 with part of the stalk) (Q9JLB9 58-401): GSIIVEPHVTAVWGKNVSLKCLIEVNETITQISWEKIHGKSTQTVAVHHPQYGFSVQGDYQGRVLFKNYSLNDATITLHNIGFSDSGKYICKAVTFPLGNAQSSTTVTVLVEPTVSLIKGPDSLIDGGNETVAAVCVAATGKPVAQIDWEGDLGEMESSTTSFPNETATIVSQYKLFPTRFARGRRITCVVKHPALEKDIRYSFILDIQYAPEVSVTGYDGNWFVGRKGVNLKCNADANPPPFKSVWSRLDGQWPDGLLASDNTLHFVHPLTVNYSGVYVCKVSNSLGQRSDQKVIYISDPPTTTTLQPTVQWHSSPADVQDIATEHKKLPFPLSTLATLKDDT
Chain of human nectin-1 ectodomain (D1-D3) (human) (Q15223 31-337): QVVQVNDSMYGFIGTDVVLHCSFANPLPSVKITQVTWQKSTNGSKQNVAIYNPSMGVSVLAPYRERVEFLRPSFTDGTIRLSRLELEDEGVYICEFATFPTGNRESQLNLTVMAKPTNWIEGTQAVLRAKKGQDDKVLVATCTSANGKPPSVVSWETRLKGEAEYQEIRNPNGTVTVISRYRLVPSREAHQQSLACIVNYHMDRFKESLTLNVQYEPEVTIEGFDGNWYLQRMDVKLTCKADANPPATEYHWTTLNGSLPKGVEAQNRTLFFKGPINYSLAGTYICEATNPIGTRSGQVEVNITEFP

For “human nectin-3 ectodomain (D1-D3) (from UniProt Q9NQS3 58-359) (domain or fragment)”, in experiment [1], the Kd came out at 228 µM and the stoichiometry N turned out to be 2. The substance also came in with a stoichiometry N in experiment [2] of 1.

In experiment [3], “mouse nectin-3 ectodomain (D1-D3 with part of the stalk) (from UniProt Q9JLB9 58-401) (domain or fragment)” registered a Kd of 122 µM and a stoichiometry N of 2.

Source of the values: paper PMC3443293.
